The text below walks through data of US20130195757, “SPARC BINDING APTAMERS AND USES THEREOF” (ABRAXIS BIOSCIENCE, LLC, published 2013).

The target in series [1] is T1, VEGF165 (Homo sapiens, UniProt P15692-4 P15692-4:27-191). Put plainly: SPR; VEGF immobilized; no specific interaction. The note with it: tags: PeproTech; amine-coupled to CM5 chip; chain copies: 2. In general terms: In SPR one partner is held on a chip, and binding of the other changes the refractive index at the surface.
Series [2] has as its target T2, SPARC (osteonectin), recombinant human (Biol-SPARC) (Homo sapiens, UniProt P09486 P09486:18-303).
T2 sequence: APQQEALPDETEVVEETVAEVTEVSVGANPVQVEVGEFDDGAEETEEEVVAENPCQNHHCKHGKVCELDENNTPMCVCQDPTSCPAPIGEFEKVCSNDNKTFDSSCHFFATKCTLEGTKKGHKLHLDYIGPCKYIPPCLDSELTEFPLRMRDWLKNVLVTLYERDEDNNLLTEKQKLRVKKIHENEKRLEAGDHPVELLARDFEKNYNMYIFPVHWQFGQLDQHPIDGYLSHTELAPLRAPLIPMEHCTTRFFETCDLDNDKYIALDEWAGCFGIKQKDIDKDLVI
As to the kind of experiment: SPR; SPARC immobilized. As to conditions: tags: Biol; amine-coupled to CM5 chip or injected as analyte. The method, then: (§1) Purified SPARC was immobilized onto the surface of a CM5 biosensor chip (GE/Biacore International AB) by the use of the amine coupling kit and the Surface Preparation tool as present in the BIACORE 3000® control software. The biosensor chip surface was activated by injecting (35 μL at a flow rate of 5 μL/min) a mixture of N-hydroxysuccinimide (NHS) and N-ethyl-N′-(dimethyl-aminopropyl)-carbodiimide (EDC) (1:1; v/v) into one of the four flow channels (Fcs). Then the SPARC, diluted (0.1 mg/mL) in coupling buffer (10 mM sodium acetate, pH 4.5), was injected and bound to the activated carboxymethylated dextran surface via its primary amine groups. After coupling, the remaining active groups were blocked with ethanolamine (1 M). Purified recombinant human VEGF165 (PeproTech, Rocky Hill, N.J.) was diluted into 100 μg/mL in sodium acetate, pH 5.5 and immobilized onto the biosensor chip surface as a control, and VEGF DNA aptamers were injected (FIG. 3). To validate recovery, the resulting bound VEGF aptamers were eluted, and 2 μL were recovered, out of which 0.5 μL was amplified by PCR.
(§2) A concentration series of selected oligonucleotide DNA were injected over both reference surface and SPARC surface. Reference surfaces were used to subtract bulk refractive index responses from the specific SPARC binding signal as well as to ensure that there is no nonspecific interaction with the sensor chip surface.

Series [3] concerns the target T2, SPARC (osteonectin), recombinant human …. As to the kind of experiment: SPR; SPARC immobilized. The note with it: tags: Biol; amine-coupled to CM5 chip or injected as analyte. This is another data set of the same source.
The target is the same in series [4]. Put plainly: SPR; aptamer immobilized on SA chip; 1:1 Langmuir. As to conditions: tags: Biol; amine-coupled to CM5 chip or injected as analyte; label: 3'-biotin. The method, then: 20 μM each of biotinylated Apt180 (SEQ ID NO: 1), biotinylated Apt187 (SEQ ID NO: 2), or a control scrambled aptamer with biotin coupled to the 3′-end were immobilized onto commercially prepared SA sensor chips (GE/Biacore International AB), which have preimmobilized streptavidin, to allow biotin capture. Typically 1200 to 1300 RU of biotinylated aptamers were immobilized.
Using methods as described in Examples 2-3, above, biotinylated Apt180 and Apt187 were immobilized on CM5 sensorchips immobilized with streptavidin (SA sensorchips). Biol-SPARC was injected at concentrations ranging from 34.9 nM to 840 nM over the immobilized Apt180 and Apt187. For Apt180, the resulting curves were best fitted by heterogeneous ligand model indicating the possible presence of multiple binding sites.

For series [5] the target is unchanged. Put plainly: SPR; heterogeneous ligand model KD1; KD2 0.103 mM; units as printed. The note with it: tags: Biol; amine-coupled to CM5 chip or injected as analyte. The method, then:
as §1
A concentration series of selected oligonucleotide DNA were injected over both reference surface and SPARC surface. […]

The target in series [6] is T1, VEGF165. As to the kind of experiment: SPR; negligible binding. As to conditions: tags: PeproTech; amine-coupled to CM5 chip; chain copies: 2.
For series [7], the target named is T2, SPARC (osteonectin), recombinant human …. As to the kind of experiment: SPR; SPARC immobilized on CM5; HBS 10 mM HEPES 150 mM NaCl 0.005% P-20; approx 4 pM in p171. The note with it: tags: Biol; amine-coupled to CM5 chip or injected as analyte. The method, then: After coupling, the remaining active groups were blocked with ethanolamine (1 M). Purified recombinant human VEGF165 (PeproTech, Rocky Hill, N.J.) was diluted into 100 μg/mL in sodium acetate, pH 5.5 and immobilized onto the biosensor chip surface as a control, and VEGF DNA aptamers were injected (FIG. 3). To validate recovery, the resulting bound VEGF aptamers were eluted, and 2 μL were recovered, out of which 0.5 μL was amplified by PCR.
as §2
FIG. 21 depicts a sensorgram showing the binding and dissociation of Apt180 (SEQ ID NO: 1) to a Biol-SPARC immobilized CM5 sensorchip as described in Example 3. […] FIG. 22 is a sensorgram showing the binding and dissociation of Biol-SPARC and a modified Apt180 having the 3′ primer region of the aptamer removed. As described in Example 3, Biol-SPARC was immobilized to CM5 sensorchip and various concentrations (0.625 μM, 1.25 μM, 2.5 μM, 5 μM, and 10 μM) of the 3′ primer deleted Apt180, were injected over the Biol-SPARC sensor chip. The resulting KD calculated from this experiment was 1.45 nM. […]

Another series has as its target Bovine serum albumin (Bos taurus, UniProt P02769 P02769:25-607). As to the kind of experiment: SPR; negligible binding. The note with it: label: 3'-biotin.
The target in series [8] is T3, SPARC, mouse (from PYS-2 cells) (Mus musculus, UniProt P07214 P07214:18-302).
T3 sequence: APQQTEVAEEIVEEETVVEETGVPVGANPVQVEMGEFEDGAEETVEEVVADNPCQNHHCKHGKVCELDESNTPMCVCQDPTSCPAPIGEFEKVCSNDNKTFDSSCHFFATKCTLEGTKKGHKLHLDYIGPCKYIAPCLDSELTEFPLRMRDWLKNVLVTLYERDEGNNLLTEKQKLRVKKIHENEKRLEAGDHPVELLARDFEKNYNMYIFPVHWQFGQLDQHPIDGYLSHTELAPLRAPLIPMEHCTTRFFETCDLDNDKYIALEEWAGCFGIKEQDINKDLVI
Put plainly: SPR; aptamer immobilized on SA chip. The note with it: tags: Sigma; PYS-2 parietal yolk sac cells; label: 3'-biotin.

T1 sequence (P15692 other isoform, or with tags, fused parts or gaps): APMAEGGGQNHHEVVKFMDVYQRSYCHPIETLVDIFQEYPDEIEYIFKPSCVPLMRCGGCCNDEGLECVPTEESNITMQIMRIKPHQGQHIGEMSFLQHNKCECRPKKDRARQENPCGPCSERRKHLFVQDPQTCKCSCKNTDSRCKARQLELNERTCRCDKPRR
Bovine serum albumin, sequence (P02769 25-607, one chain of several): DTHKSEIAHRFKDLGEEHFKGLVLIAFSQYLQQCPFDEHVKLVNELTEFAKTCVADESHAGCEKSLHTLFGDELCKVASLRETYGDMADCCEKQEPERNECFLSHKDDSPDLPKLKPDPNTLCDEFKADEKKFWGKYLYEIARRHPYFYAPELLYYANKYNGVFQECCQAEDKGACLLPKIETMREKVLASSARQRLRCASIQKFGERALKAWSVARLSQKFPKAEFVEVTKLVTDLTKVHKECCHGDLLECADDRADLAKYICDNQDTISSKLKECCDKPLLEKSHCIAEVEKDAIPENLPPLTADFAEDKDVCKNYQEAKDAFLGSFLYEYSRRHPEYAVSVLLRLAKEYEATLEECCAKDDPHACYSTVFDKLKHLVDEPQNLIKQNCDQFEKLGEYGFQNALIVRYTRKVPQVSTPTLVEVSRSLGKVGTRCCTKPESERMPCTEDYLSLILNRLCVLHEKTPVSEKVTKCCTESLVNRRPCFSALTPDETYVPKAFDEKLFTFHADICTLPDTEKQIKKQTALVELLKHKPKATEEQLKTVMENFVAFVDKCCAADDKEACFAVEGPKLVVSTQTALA

B1: Apt191 (ssDNA)
DNA: GAATTCGATGGTAACCAAGGGGGTGTTTGTTTTTGTAGTCATTGTTGGTCATCTGATCTAGCCAAG
For orientation: Kd means the concentration at which binding is half-saturated. In the case of B1, the binding result with VEGF165 [1] is listed as “no binding”. The Kd in series [2] was found to be 84.2 nM.

B2: Apt216 (AptBia216) (ssDNA)
DNA: GAATTCGATGGTAACCAATGATGTTATTTTTTTGTGCTTTTATTCTTTTCATCTGATCTAGCCAAG
Regarding B2, the Kd in series [2] was 447 nM.

B3: Apt187 (ssDNA)
DNA: GAATTCGATGGTAACCAAGGCGGGGTTTTCGTATGCTCATTCCAGTGGTCATCTGATCTAGCCAAG
Turning to B3, the Kd in [3] worked out at 0.19 nM.

B4: Apt187 3'-biotin (ssDNA)
DNA: B3 DNA
As to B4, in series [4], the dissociation constant Kd is 30.2 nM.

B5: Apt207 (AptBia207) (ssDNA)
DNA: GAATTCGATGGTAACCAAGTGTATTGTTTATTCTTCTGTTTCTTATTGTCATCTGATCTAGCCAAG
B5: in series [2], the Kd turned out to be 139 nM.

B6: Apt184 (ssDNA)
DNA: GAATTCGATGGTAACCAACCCAATGTGTTTCGTTTGTTTTCATTTGTCATCTGATCTAGCCAAG
B6: the dissociation constant Kd in series [2] is 277 nM.

B7: Apt211 (AptBia211) (ssDNA)
DNA: GAATTCGATGGTAACCAAGGAATATTTGGGGTTTTTTGCTTCTGGACGTCATCTGATCTAGCCAAG
Consider B7, for which, in series [5], the Kd came out at 132000 nM.

B8: Apt100 (ssDNA)
DNA: GAATTCGATGGTAACCAAGGTCACTTTTTTATGTCGCTTAAATGTTGGTCATCTGATCTAGCCAAGC
B8: the Kd in [3] is around 300 nM.

B9: Apt180 (ssDNA)
DNA: GAATTCGATGGTAACCAAGGCTGTTCGGTATTTTGATATTTTTATGCGTCATCTGATCTAGCCAAG
On to B9, for which the binding result with VEGF165 [6] is listed as “no binding”. Further, the Kd in series [7] was 0.0044 nM.

B10: Apt180 3'-biotin (ssDNA)
DNA: B9 DNA
With B10, the binding result in the series with Bovine serum albumin was “no binding”. Besides, the affinity in series [8], expressed as Kd, was 1200 nM.

B11: Apt208 (AptBia208) (ssDNA)
DNA: GAATTCGATGGTAACCAAGCAATTTGTATTTTTGTGTATTTATTTTGTTCATCTGATCTAGCCAAG
Take B11: the dissociation constant Kd in series [2] worked out at 100 nM.

B12: Apt231 (AptBia231) (ssDNA)
DNA: GAATTCGATGGTAACCAATGCGCTTATGTTTTTTTTATTTTTTATGTTTCATCTGATCTAGCCAAG
For B12, in series [2], the dissociation constant Kd amounted to 45.4 nM.

B13: Apt181 (ssDNA)
DNA: GAATTCGATGGTAACCAATTTCCGTATTGTTGGTTTGTGTTTGTGTCGTCATCTGATCTAGCCAAG
Take B13: in series [2], the Kd is 298 nM.
